{
  "source": "patent US6958321B2",
  "about": "“Isolation, characterization, cloning and use of a mushroom lectin” (The Regents of the University of Michigan, priority 2001, dated 2005)",
  "test_in_all_cases": "Agglutination of cells by Marasmius oreades lectin",
  "format_in_all_cases": "cell-based",
  "key": {"[1]": {"tested_on": "Human B erythrocytes", "protocol": "(§1) In some embodiments, blood group specificity of MOA is determined in hemagglutination assays (see Examples below). Briefly, formaldehyde-treated erythrocytes in V-well microtitre plates are used in a protocol as described in Mo et al. [J. Biol. Chem 275:10623 (2000)], herein incorporated by reference. […] Example 3, below, presents the data for agglutination activity against a variety of cell types. […] Biochemistry 22: 5290 (1983)].\n(§2) Hemagglutination assays were carried out using formaldehyde-treated erythrocytes in V-well microtitre plates as described by Mo et al. [J. Biol. Chem 275:10623 (2000)], herein incorporated by reference. Titres were recorded as the greatest dilution of the lectin solution yielding visible agglutination. Agglutination of Ehrlich ascites tumor cells (grown in in vitro culture) was observed microscopically.\n(§3) Hemagglutination activity was unchanged by extensive dialysis of the lectin and assay in metal-free buffer containing EDTA, indicating the absence of a divatent metal ion requirement. As noted in Example 2, subsequent assays and purifications routinely used metal-free buffers containing EDTA."}, "[2]": {"tested_on": "Human O erythrocytes", "details": "human type O erythrocytes", "protocol": "as §1, §2, §3"}, "[3]": {"tested_on": "Human A erythrocytes", "details": "human type A erythrocytes", "protocol": "as §1, §2, §3"}, "[4]": {"tested_on": "Cultured Ehrlich ascites tumor cells", "protocol": "as §1, §2, §3"}},
  "data": [
    {"molecule": "MOA: M. oreades lectin (agglutinin) with binding specificity for Galα1,3Gal; single polypeptide of approximately 33 kDa (protein) MSLRRGIYHIENAGVPSAIDLKDGSSSDGTPIVGWQFTPDTINWHQLWLAEPIPNVADTFTLCNLFSGTYMDLYNGSSEAGTAVNGWQGTAFTTNPHQLWTIKKSSDGTSYKIQNYGSKTFVDLVNGDSSDGAKIAGWTGTWDEGNPHQKWYFNRMSVSSAEAQAAIARNPHIHGTYRGYILDGEYLVLPNATFTQIWKDSGLPGSKWREQIYDCDDFAIAMKAAVGKWGADSWKANGFAIFCGVMLGVNKAGDAAHAYNFTLTKDHADIVFFEPQNGGYLNDIGYDSYMAFY", "values": [
      {"measurement": "hemagglutination activity", "setting": "[1]", "value": "Strong"},
      {"measurement": "hemagglutination activity", "setting": "[2]", "value": "very little activity"},
      {"measurement": "hemagglutination activity", "setting": "[3]", "value": "very little activity"},
      {"measurement": "agglutination", "setting": "[4]", "value": "readily agglutinated"}
    ]}
  ]
}
